Experimental data taken from patent publication US20250368740A1 (SHENZHEN BAISHITONG TECHNOLOGY DEVELOPMENT, published 2025).
Several values for one entry are separate records, joined by “and”; a condition that tells them apart may be missing. Equal entries are not always repeated.

T1: recombinant human CD276-ECD protein (human, UniProt Q5ZPR3 29-255)
T1 construct: Purchased from Acro BIOSYSTEMS; Used native (ELISA) and reduced and denatured (Western blot); also called B7-H3
T1 sequence: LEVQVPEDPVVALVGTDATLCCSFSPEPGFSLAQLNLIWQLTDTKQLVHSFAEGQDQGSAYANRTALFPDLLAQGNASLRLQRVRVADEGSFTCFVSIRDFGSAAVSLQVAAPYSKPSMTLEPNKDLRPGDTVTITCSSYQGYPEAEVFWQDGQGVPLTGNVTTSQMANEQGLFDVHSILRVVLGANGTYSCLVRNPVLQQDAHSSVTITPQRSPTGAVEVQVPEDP

T2: biotinylated human CD122/132 (human, UniProt P14784 27-239; P31785 23-254, limits assumed, biotinylated (site not stated))
T2 construct: Bought heterodimeric reagent; also called CD122/CD132
T2 sequence (looked up) 1: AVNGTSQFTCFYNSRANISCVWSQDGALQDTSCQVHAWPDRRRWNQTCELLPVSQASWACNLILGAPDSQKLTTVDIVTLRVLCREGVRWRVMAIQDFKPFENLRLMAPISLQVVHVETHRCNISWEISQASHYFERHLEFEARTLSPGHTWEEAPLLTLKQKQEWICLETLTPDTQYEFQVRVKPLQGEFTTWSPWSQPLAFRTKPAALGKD
T2 sequence (looked up) 2: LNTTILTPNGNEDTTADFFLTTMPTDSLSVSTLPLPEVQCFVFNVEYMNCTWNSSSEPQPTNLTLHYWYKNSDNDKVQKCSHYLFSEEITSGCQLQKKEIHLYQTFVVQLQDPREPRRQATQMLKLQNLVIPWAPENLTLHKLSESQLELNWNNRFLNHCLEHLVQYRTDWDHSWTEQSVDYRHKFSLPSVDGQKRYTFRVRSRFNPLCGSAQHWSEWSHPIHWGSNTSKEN


Columns and labels:
[1] = biological target: T1, recombinant human CD276-ECD protein; experiment: indirect ELISA, plate coated with human CD276-ECD
[2] = biological target: T2, biotinylated human CD122/132; experiment: sandwich ELISA: antibody on coated human CD276-ECD, biotinylated CD122/132 detected with SA-HRP
Experimental: The method was as follows: The plates were pre-coated with human CD276-ECD protein diluted to 2 μg/mL in the coating solution (50 mM carbonate coating buffer, pH 9.6) and incubated at 4° C. overnight. The plates were then blocked with 5% skim milk powder at 37° C. for 2 hours. Afterward, the plates were washed 3 times with PBST, and the to-be-tested antibody, diluted in 1% BSA-PBST at various gradients, was added to the blocked plates at 100 μL per well. The plates were incubated at 37° C. for 1 hour. […] Following 3 additional washes with PBST, diluted HRP-conjugated streptavidin (SA) (purchased from Pierce) was added, and the plates were incubated at 37° C. for 30 minutes. After 3 more washes with PBST, residual droplets were removed by blotting on absorbent paper. Then, 100 μL of TMB substrate (purchased from KPL) was added to each well, and the plates were incubated at room temperature (20±5° C.) in the dark for 5 minutes.
As a control, hu147 could bind to CD276 (as shown in Embodiment 8), but not CD122/CD132.

| EC50 [1] | binding result [2] | Binder |
| --- | --- | --- |
| 0.0067 µg/mL and 0.04 nM | no binding | humanized antibody hu147 (antibody, Human IgG1 / kappa; also called hul47) heavy: not shown light: EIVMTQSPPTLSLSPGERVTLSCRASENVGTYVSWYQQKPGQAPRLLIYGASNRYTGIPARFSGSGSGTDFTLTISSLQPEDFAVYYCGQRYSYPFTFGGGTKLEIKRTVAAPSVFIFPPSDEQLKSGTASVVCLLNNFYPREAKVQWKVDNALQSGNSQESVTEQDSKDSTYSLSSTLTLSKADYEKHKVYACEVTHQGLSSPVTKSFNRGEC |
| 0.0068 µg/mL and 0.05 nM | – | Fc-mutated humanized antibody hu147mu (antibody, human IgG1, kappa, about 150 kDa; also called hul47mu) heavy: not shown light: EIVMTQSPPTLSLSPGERVTLSCRASENVGTYVSWYQQKPGQAPRLLIYGASNRYTGIPARFSGSGSGTDFTLTISSLQPEDFAVYYCGQRYSYPFTFGGGTKLEIKRTVAAPSVFIFPPSDEQLKSGTASVVCLLNNFYPREAKVQWKVDNALQSGNSQESVTEQDSKDSTYSLSSTLTLSKADYEKHKVYACEVTHQGLSSPVTKSFNRGEC |
